Data: patent publication US9193963B2, “Mutant endoglucanase” (Toray Industries, Inc., priority 2011, dated 2015)

Assays:
[1] = Saccharification of lignocellulose 2 with Trichoderma reesei culture solution and endoglucanase; format: biochemical, Rice straw; conditions: Lignocellulose 2, 24 hours; cellulase 1.0 mg/mL + endoglucanase 0.1 mg/mL + β-glucosidase (Novozyme 188) 0.01 mg/mL
Procedure, shortened: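 Dilute-sulfuric-acid-autoclaved rice straw (pH ~5) suspended at 5 wt % in 50 mM acetate pH 5.2, hydrolysed 24 h at 50 °C. Enzymes: T. reesei culture solution 1.0 mg/mL, mutant or wild-type endoglucanase 0.1 mg/mL, β-glucosidase 0.01 mg/mL. Glucose released was measured.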

[2] = Saccharification of lignocellulose 3 with Celluclast and endoglucanase; format: biochemical, Rice straw; conditions: 5 wt % Lignocellulose 3, pH 5.2, 50° C., 24 hours; 1.0 mg/mL cellulase + 0.1 mg/mL endoglucanase
Procedure, shortened: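 Hydrothermally pretreated rice straw (180° C., 20 min) at 5 wt % in 50 mM acetate buffer pH 5.2 digested at 50° C. for 24 h with Celluclast 1.0 mg/mL plus mutant or wild-type endoglucanase 0.1 mg/mL. Released glucose measured over time.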

[3] = Saccharification of lignocellulose 2 with Celluclast and endoglucanase; format: biochemical, Rice straw; conditions: 5 wt % Lignocellulose 2, pH 5.2, 50° C., 24 hours; 1.0 mg/mL cellulase + 0.1 mg/mL endoglucanase
Procedure, shortened: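 Dilute-sulfuric-acid-pretreated rice straw (10 wt% solids, pH ~5) suspended at 5 wt% in 50 mM acetate buffer pH 5.2 was digested 24 h at 50 °C with 1.0 mg/mL Trichoderma reesei Celluclast plus 0.1 mg/mL mutant or wild-type endoglucanase; glucose released was measured.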

[4] = Inhibition experiment with vanillin: degradation of phosphoric acid swollen cellulose; format: biochemical; conditions: enzyme 0.5 μM, 1 hour, 50° C., parent at 0 mM = 100%
Experimental: This substance was diluted using buffer and water to obtain a 2 wt % mixture so that the final concentration of sodium acetate was 50 mM (pH 5.2). This was designated as phosphoric acid swollen cellulose and used for the following examples.
The activity of the wild-type and the mutant endoglucanases to degrade phosphoric acid swollen cellulose in the presence of vanillin was measured. 1% phosphoric acid swollen cellulose/50 mM acetate buffer (pH 5.2) was used as a substrate. Vanillin (Sigma Aldrich) was added at final concentrations of 0, 5, 10, and 15 mM. The enzymes prepared in Reference Example 1 and Example 2 were added at a final concentration of 0.5 μM, followed by 1 hour of enzymatic reaction at 50° C.

[5] = Activity to degrade phosphoric acid swollen cellulose; format: biochemical
Procedure, shortened: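 Enzyme added to phosphoric acid swollen cellulose in 50 mM acetate buffer, pH 5.2; 1 h reaction at 30–85 °C, stopped by pH change if needed. Glucose released measured by glucose kit; activity expressed relative to parent endoglucanase set at 100%.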

[6] = Saccharification of lignocellulose 1 with Trichoderma reesei culture solution and endoglucanase; format: biochemical, Rice straw; conditions: Lignocellulose 1, 24 hours; cellulase 1.0 mg/mL + endoglucanase 0.1 mg/mL + β-glucosidase (Novozyme 188) 0.01 mg/mL
Procedure, shortened: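 Substrate was liquid-ammonia-treated rice straw (1 h, 150 °C), suspended at 5 wt % in 50 mM acetate buffer pH 5.2 and hydrolysed for 24 h at 50 °C. Enzymes: T. reesei culture solution 1.0 mg/mL, mutant or wild-type endoglucanase 0.1 mg/mL, β-glucosidase 0.01 mg/mL. Glucose released was measured.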

[7] = Inhibition experiment with ferulic acid: degradation of phosphoric acid swollen cellulose; format: biochemical; conditions: enzyme 0.5 μM, 1 hour, 50° C., parent at 0 mM = 100%
[8] = Saccharification of lignocellulose 1 with Celluclast and endoglucanase; format: biochemical, Rice straw; conditions: 5 wt % Lignocellulose 1, pH 5.2, 50° C., 24 hours; 1.0 mg/mL cellulase + 0.1 mg/mL endoglucanase
Procedure, shortened: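 Rice straw pretreated with liquid ammonia (15 min room temperature, then 1 h at 150° C), suspended at 5 wt % in 50 mM acetate pH5.2. Hydrolysed at 50° C for 24 h with 1.0 mg/mL Trichoderma reesei cellulase plus 0.1 mg/mL mutant or wild-type endoglucanase; glucose measured.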

[9] = Saccharification of lignocellulose 3 with Trichoderma reesei culture solution and endoglucanase; format: biochemical, Rice straw; conditions: Lignocellulose 3, 24 hours; cellulase 1.0 mg/mL + endoglucanase 0.1 mg/mL + β-glucosidase (Novozyme 188) 0.01 mg/mL
Procedure, shortened: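 Hydrothermally treated rice straw (180 °C, 20 min, 10 MPa; solid fraction) suspended at 5 wt % in 50 mM acetate buffer pH 5.2, hydrolysed 24 h at 50 °C. Enzymes: T. reesei culture-solution cellulase 1.0 mg/mL, mutant or wild-type endoglucanase 0.1 mg/mL, β-glucosidase 0.01 mg/mL; glucose generated measured.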

[10] = 1% phosphoric acid swollen cellulose, pH 5.2, enzyme 0.5 μM, 1 hour, 50° C., glucose generated by each parent endoglucanase = 100%

B1: EGPh Wild-type: Pyrococcus horikoshii-derived endoglucanase, SEQ ID NO: 1, parent endoglucanase (protein)
chain: MEGNTILKIVLICTILAGLFGQVVPVYAENTTYQTPTGIYYEVRGDTIYMINVTSGEETPIHLFGVNWFGFETPNHVVHGLWKRNWEDMLLQIKSLGFNAIRLPFCTESVKPGTQPIGIDYSKNPDLRGLDSLQIMEKIIKKAGDLGIFVLLDYHRIGCTHIEPLWYTEDFSEEDFINTWIEVAKRFGKYWNVIGADLKNEPHSVTSPPAAYTDGTGATWGMGNPATDWNLAAERIGKAILKVAPHWLIFVEGTQFTNPKTDSSYKWGYNAWWGGNLMAVKDYPVNLPRNKLVYSPHVYGPDVYNQPYFGPAKGFPDNLPDIWYHHFGYVKLELGYSVVIGEFGGKYGHGGDPRDVIWQNKLVDWMIENKFCDFFYWSWNPDSGDTGGILQDDWTTIWEDKYNNLKRLMDSCSKSSSSTQSVIRSTTPTKSNTSKKICGPAILIILAVFSLLLRRAPR
modifications: Pyrococcus horikoshii EGPh
For B1, the “Concentration of glucose generated, Culture solution + Wild-type” value (“Concentration … Culture solution + Wild-type” for short) [1] was 8 g/L, the “Concentration of glucose generated, Celluclast + Wild-type” value (from here on “Concentration … Celluclast + Wild-type”) [2] was 12 g/L and the “Concentration … Celluclast + Wild-type” value [3] was 11 g/L. The “Relative activity to degrade phosphoric acid swollen cellulose” value ([4]; vanillin 0 mM) was 100%, the “Relative activity to degrade phosphoric acid swollen cellulose” value ([4]; vanillin 5 mM) was 40% and the “Relative activity to degrade phosphoric acid swollen cellulose” value ([4]; vanillin 10 mM) was 40%. The “Relative activity to degrade phosphoric acid swollen cellulose” value ([4]; vanillin 15 mM) was 40%, the Relative activity [5, 10] was 100% and the Relative activity ([5]; Comparative Example 2, technique similar to Example 3, parent endoglucanase = 100%) was 100%. For the same molecule, the “Concentration … Culture solution + Wild-type” value [6] was 9 g/L, the “Relative activity to degrade phosphoric acid swollen cellulose” value ([7]; ferulic acid 0 mM) was 100% and the “Relative activity to degrade phosphoric acid swollen cellulose” value ([7]; ferulic acid 5 mM) was 60%. The “Relative activity to degrade phosphoric acid swollen cellulose” value ([7]; ferulic acid 10 mM) was 50%, the “Relative activity to degrade phosphoric acid swollen cellulose” value ([7]; ferulic acid 15 mM) was 50% and the “Concentration … Celluclast + Wild-type” value [8] was 12 g/L. For the same molecule, the “Concentration … Culture solution + Wild-type” value [9] was 10 g/L.

B2: EGPh Mutant: mutant EGPh, SEQ ID NO: 2; 273rd tryptophan substituted with alanine (protein)
chain: MEGNTILKIVLICTILAGLFGQVVPVYAENTTYQTPTGIYYEVRGDTIYMINVTSGEETPIHLFGVNWFGFETPNHVVHGLWKRNWEDMLLQIKSLGFNAIRLPFCTESVKPGTQPIGIDYSKNPDLRGLDSLQIMEKIIKKAGDLGIFVLLDYHRIGCTHIEPLWYTEDFSEEDFINTWIEVAKRFGKYWNVIGADLKNEPHSVTSPPAAYTDGTGATWGMGNPATDWNLAAERIGKAILKVAPHWLIFVEGTQFTNPKTDSSYKWGYNAWAGGNLMAVKDYPVNLPRNKLVYSPHVYGPDVYNQPYFGPAKGFPDNLPDIWYHHFGYVKLELGYSVVIGEFGGKYGHGGDPRDVIWQNKLVDWMIENKFCDFFYWSWNPDSGDTGGILQDDWTTIWEDKYNNLKRLMDSCSKSSSSTQSVIRSTTPTKSNTSKKICGPAILIILAVFSLLLRRAPR
modifications: Pyrococcus horikoshii EGPh W273A
notes: 273rd tryptophan substituted with alanine
For B2, the “Concentration of glucose generated, Culture solution + Mutant” value (“Concentration … Culture solution + Mutant” below) [1] was 12 g/L, the “Concentration of glucose generated, Celluclast + Mutant” value (“Concentration … Celluclast + Mutant” for short) [2] was 16 g/L and the “Concentration … Celluclast + Mutant” value [3] was 15 g/L. For the same molecule, the “Relative activity to degrade phosphoric acid swollen cellulose” value ([4]; vanillin 0 mM) was 100%, the “Relative activity to degrade phosphoric acid swollen cellulose” value ([4]; vanillin 5 mM) was 95% and the “Relative activity to degrade phosphoric acid swollen cellulose” value ([4]; vanillin 10 mM) was 90%. For the same molecule, the “Relative activity to degrade phosphoric acid swollen cellulose” value ([4]; vanillin 15 mM) was 90%, the Relative activity [5, 10] was 100% and the “Concentration … Culture solution + Mutant” value [6] was 13 g/L. The “Relative activity to degrade phosphoric acid swollen cellulose” value ([7]; ferulic acid 0 mM) was 100%, the “Relative activity to degrade phosphoric acid swollen cellulose” value ([7]; ferulic acid 5 mM) was 100% and the “Relative activity to degrade phosphoric acid swollen cellulose” value ([7]; ferulic acid 10 mM) was 100%. For the same molecule, the “Relative activity to degrade phosphoric acid swollen cellulose” value ([7]; ferulic acid 15 mM) was 95%, the “Concentration … Celluclast + Mutant” value [8] was 16 g/L and the “Concentration … Culture solution + Mutant” value [9] was 13 g/L.

B3: EGIa1 Wild-type: Ignisphaera aggregans-derived endoglucanase1, SEQ ID NO: 7, parent endoglucanase (protein)
chain: MNFFVKNGEIYKLDGATGKPKIIYLFGVNWFGFETRDYVVHGLWARNWVDMLQQIKSLGFNAIRLPFCTYSVQEGTMPNSNAINYNINPDLQGLTSIEIMEKIVAKANELGIYILLDYHRLGCDQIEPLWYSDQVSEQQFIDTWVSVAKRFAKYPNVIGADIRNEPWGATWGTDDPATDWRLAVEKVAPKILEVAPHWLIFVEGTYKTRPDIDERSWYPYYSYYVFWGENLRAVRYYPVRLPYEKIVYSPHTYGPDVFRQPYFDDPIFPENMRSIWMERFGYVKTELGYALVVGEFGGRYGHGGDPRDIIWQIKFVDWLIENRICNFFYWSWNANSGDTGGILKDDWTNIWEDKYQNLKRLMDYCSSIN
modifications: Ignisphaera aggregans EGIa1
In the case of B3, the “Concentration … Culture solution + Wild-type” value [1] is reported as 9 g/L, the “Concentration … Celluclast + Wild-type” value [2] is reported as 11 g/L and the “Concentration … Celluclast + Wild-type” value [3] is reported as 12 g/L. For the same molecule, the “Relative activity to degrade phosphoric acid swollen cellulose” value ([4]; vanillin 0 mM) was 100%, the “Relative activity to degrade phosphoric acid swollen cellulose” value ([4]; vanillin 5 mM) was 60% and the “Relative activity to degrade phosphoric acid swollen cellulose” value ([4]; vanillin 10 mM) was 55%. The “Relative activity to degrade phosphoric acid swollen cellulose” value ([4]; vanillin 15 mM) was 40%, the Relative activity [5, 10] was 100% and the “Concentration … Culture solution + Wild-type” value [6] was 8 g/L. The “Relative activity to degrade phosphoric acid swollen cellulose” value ([7]; ferulic acid 0 mM) was 100%, the “Relative activity to degrade phosphoric acid swollen cellulose” value ([7]; ferulic acid 5 mM) was 55% and the “Relative activity to degrade phosphoric acid swollen cellulose” value ([7]; ferulic acid 10 mM) was 50%. For the same molecule, the “Relative activity to degrade phosphoric acid swollen cellulose” value ([7]; ferulic acid 15 mM) was 50%, the “Concentration … Celluclast + Wild-type” value [8] was 11 g/L and the “Concentration … Culture solution + Wild-type” value [9] was 8 g/L.
